Experimental findings from PMC3409459, “Absorption, distribution, metabolism and excretion of peginesatide, a novel erythropoiesis-stimulating agent, in rats” (Xenobiotica; the Fate of Foreign Compounds in Biological …, 2011) are described below.

Details of this data set: species or system male Sprague-Dawley rats. Conditions: rat, in vivo, iv. The procedure: The metabolite profiling in the biological samples from rats dosed with [^14C]-peginesatide was performed by high-performance liquid chromatography (HPLC). The radiolabeled materials in the samples of plasma and aqueous homoge-nates of tissues and feces were extracted with five volumes of methanol containing 0.1% of trifluoroacetic acid (TFA), mixed and centrifuged at 1500g at 4°C for l0 min to obtain supernatant. A portion of the supernatant was counted to estimate the extraction recovery of [^14C]-peginesatide and its related compounds in the biological samples. The rest of the supernatant was evaporated to dryness under a nitrogen gas stream. The residue was re-dissolved in a small volume of equal parts mobile phase [MP(A)] and B [MP(B)] for chromatographic analysis. The HPLC system (Simadzu, Kyoto, Japan) consisted of a LC-lOADvp pump, a CTO-lOACvp column oven, an SPD-lOAvp UV detector, and an SCL-lOAvp system controller. […] A mixture of 0.1% TFA aqueous solution and 0.1% TFA in methanol solution were used for MP(A) and MP(B), respectively. The flow rate was 0.5mL/min, and the peaks were monitored by a UV absorption detector at 215 run. The time for the gradient elution was as follows: the concentration of MP(B) was increased from 50 to 80% and from 80 to 83% over a period of 2-10min and 10-20min, respectively. […] The effluentwas collected into 0.5mL size fractions, followed by counting of the radioactivity (LSC). Under these conditions unchanged peginesatide and mono-PEG eluted at approximately 22 and 10 min, respectively.
The urine and fecal samples were obtained from the animals (n = 3) dosed in the mass balance study. Urine and fecal samples were collected every 24h and were combined into 2 aliquots (0-168 and 168-336h) for metabolite analysis. The urine and fecal samples were subjected to analysis by HPLC-fraction collection. Urine sample radioactivity was measured by LSC and fecal homogenate samples were measured by LSC following combustion.

For the substance Peginesatide, the “Percent dose excretion, Feces 0–168 h” value was 1.9 % dose; the “Percent dose excretion, Feces 0–336 h” value worked out at 1.9 % dose; the “Percent dose excretion, Feces 168–336 h” value is listed as “LOQ (0)”; the “Percent dose excretion, Urine 0–168 h” value is 23.3 % dose. In addition, the “Percent dose excretion, Urine 0–336 h” value was 27.5 % dose and the “Percent dose excretion, Urine 168–336 h” value worked out at 4.2 % dose.
